For the assay, the target named is F-actin in live HEK293T cells (human (endogenous in HEK293T)) (UniProt P60709). The assay is described as follows: FRET or BRET; live HEK293T cells co-transfected with ABD-mEGFP (donor) and Lifeact-mCherry (acceptor, on actin filaments); harvested 24 h after transfection; FRET efficiency from mEGFP fluorescence lifetime (time-correlated single photon counting); n = 3. Background: Bioluminescence resonance energy transfer reports proximity on the nanometre scale.

On to “L253P β-III-spectrin ABD fused at the C-terminus to mEGFP (domain or fragment)”, for which the FRET efficiency came out at 8.4%.

These data come from PMC8810934.
